The target of this assay is full-length H. sapiens ROCK2 (H. sapiens), O75116. Description: rotary shadowing electron microscopy. Particulars: remark: other sources report otherwise.

B1: full-length H. sapiens ROCK2, O75116 1-1388 (enzyme)
chain: MSRPPPTGKMPGAPETAPGDGAGASRQRKLEALIRDPRSPINVESLLDGLNSLVLDLDFPALRKNKNIDNFLNRYEKIVKKIRGLQMKAEDYDVVKVIGRGAFGEVQLVRHKASQKVYAMKLLSKFEMIKRSDSAFFWEERDIMAFANSPWVVQLFYAFQDDRYLYMVMEYMPGGDLVNLMSNYDVPEKWAKFYTAEVVLALDAIHSMGLIHRDVKPDNMLLDKHGHLKLADFGTCMKMDETGMVHCDTAVGTPDYISPEVLKSQGGDGFYGRECDWWSVGVFLYEMLVGDTPFYADSLVGTYSKIMDHKNSLCFPEDAEISKHAKNLICAFLTDREVRLGRNGVEEIRQHPFFKNDQWHWDNIRETAAPVVPELSSDIDSSNFDDIEDDKGDVETFPIPKAFVGNQLPFIGFTYYRENLLLSDSPSCRETDSIQSRKNEESQEIQKKLYTLEEHLSNEMQAKEELEQKCKSVNTRLEKTAKELEEEITLRKSVESALRQLEREKALLQHKNAEYQRKADHEADKKRNLENDVNSLKDQLEDLKKRNQNSQISTEKVNQLQRQLDETNALLRTESDTAARLRKTQAESSKQIQQLESNNRDLQDKNCLLETAKLKLEKEFINLQSALESERRDRTHGSEIINDLQGRICGLEEDLKNGKILLAKVELEKRQLQERFTDLEKEKSNMEIDMTYQLKVIQQSLEQEEAEHKATKARLADKNKIYESIEEAKSEAMKEMEKKLLEERTLKQKVENLLLEAEKRCSLLDCDLKQSQQKINELLKQKDVLNEDVRNLTLKIEQETQKRCLTQNDLKMQTQQVNTLKMSEKQLKQENNHLMEMKMNLEKQNAELRKERQDADGQMKELQDQLEAEQYFSTLYKTQVRELKEECEEKTKLGKELQQKKQELQDERDSLAAQLEITLTKADSEQLARSIAEEQYSDLEKEKIMKELEIKEMMARHKQELTEKDATIASLEETNRTLTSDVANLANEKEELNNKLKDVQEQLSRLKDEEISAAAIKAQFEKQLLTERTLKTQAVNKLAEIMNRKEPVKRGNDTDVRRKEKENRKLHMELKSEREKLTQQMIKYQKELNEMQAQIAEESQIRIELQMTLDSKDSDIEQLRSQLQALHIGLDSSSIGSGPGDAEADDGFPESRLEGWLSLPVRNNTKKFGWVKKYVIVSSKKILFYDSEQDKEQSNPYMVLDIDKLFHVRPVTQTDVYRADAKEIPRIFQILYANEGESKKEQEFPVEPVGEKSNYICHKGHEFIPTLYHFPTNCEACMKPLWHMFKPPPALECRRCHIKCHKDHMDKKEEIIAPCKVYYDISTAKNLLLLANSTEEQQKWVSRLVKKIPKKPPAPDPFARSSPRTSMKIQQNQSIRRPSRQLAPNKPS
The molecule B1 had a stoichiometry N of 2.

Source of the values: publication doi:10.1101/2022.03.11.483953.
